In patent US12697366B2, “Thermogenic compositions and methods” (Ohio State Innovation Foundation, priority 2016, dated 2026):

Key:
ob/ob mice = test: AAC2, IGFBP4 and AAC2-IGFBP4 treatment of ob/ob mice; type: in vivo, mouse; conditions: ELISA, end of study
Experimental: A study was performed in ob/ob mouse model of obesity, insulin resistance, and type 2 diabetes. Treatment groups (n=5) included vehicle (non-treated control), AAC2 nanofiber alone, IGFBP4 peptide alone, and AAC2-IGFBP4 peptide bound to nanofiber. 5-week old male Lep^ob mice (ob/ob mice, Jackson #000632-B6.Cg-Lepob/J, Homozygous for Lepob) were randomized into four groups (n=5/group). After 1 week assimilation period, mice were injected (10 μl/g body weight (BW)) into scapular region every 48 h for 4 weeks with: • Group 1: PBS vehicle control, • Group 2: 1 nmol AAC2/g BW, • Group 3: 0.0187 nmol human insulin-like growth factor binding protein 4 (hIGFBP4, Peprotech #350-05B), or • Group 4: AAC2/hIGFBP4 combination (1 nmol AAC2 and 0.0187 nmol hIGFBP4/g BW were assembled into complex prior to injection)

3T3-L1 preadipocytes = test: FD-glucose uptake in 3T3-L1 preadipocytes; type: cell-based, mouse; conditions: mouse recombinant IGFBP4; human insulin 10 μg/mL; 90 min
Experimental: Non-differentiated, 90% confluent 3T3-L1 cells were starved with glucose-deprived medium for 40 min. Then cells were treated in the presence and absence of different concentrations of nanoscaffold #2 and bovine insulin (200 μg/mL), all of reagents dissolved in the same glucose-deprived medium but containing fluorescent-D (FD)-glucose for 80 min. Thereafter, the FD glucose uptake was measured according to manufacturer's instructions (Cayman Chemical, USA, cat #600471). […] Non-differentiated, 90% confluent 3T3-L1 cells treated in the presence and absence of different concentrations of nanoscaffold #2 and bovine insulin (10 μg/mL) or mouse epiregulin (EREG, 0.05 μg/mL) and incubated for 24 h. Then cells were starved with glucose-deprived medium for 40 min and, then incubated with fluorescent-D (FD)-glucose for 80 min. Thereafter, the FD glucose uptake was measured according to manufacturer's instructions (Cayman Chemical, USA, cat #600471). Data are shown as percent of uptake in the presence of insulin (100%).
Non-differentiated, 90% confluent 3T3-L1 cells treated in the presence of bovine insulin (10 μg/mL), mouse epiregulin (EREG, 0.05 μg/mL), or their combinations and incubated for 24 h. Then cells were starved with glucose-deprived medium for 40 min and, then incubated with fluorescent-D (FD)-glucose for 80 min. Thereafter, the FD glucose uptake was measured according to manufacturer's instructions (Cayman Chemical, USA, cat #600471).
Non-differentiated, 90% confluent 3T3-L1 cells were starved with glucose-deprived medium for 50 min. Then cells were treated in the presence and absence of different concentrations of mouse recombinant IGFBP4 with and without nanoscaffold #2 and human insulin (10 μg/mL). All of reagents were dissolved in the same glucose-deprived medium but containing fluorescent-D (FD)-glucose for 90 min. Thereafter, the FD glucose uptake was measured according to manufacturer's instructions (Cayman Chemical, USA, cat #600471).
Glucose uptake assay was performed using glucose uptake cell-based assay kit (Cayman Chemical, Ann Arbor, MI). 3T3-L1 or human preadipocytes were cultured at a density of 5×10^4 per well into a 96-well plate (n=7) in high glucose media and grown overnight. Old cell culture medium was removed the next day and washed with PBS to remove residual glucose. Supplied 2-deoxy-2-[(7-nitro-2,1,3-benzoxadiazol-4-yl)amino]-D-glucose) (2-NBDG) was diluted to 150 μg/mL in DMEM medium without glucose, phenol red, L-glutamine, sodium pyruvate, and HEPES (Life technologies, Grand Island, New York). 100 μL of 2-NBDG glucose free medium with or without recombinant EREG and other treatments was added to the plated cells. After incubating at 37° C. for 30 minutes, cells were washed gently two times with 200 μL of glucose assay buffer. 100 μL of the assay buffer was added to each well and measured for fluorescence at an excitation/emission of 485/535 nm.
Fluorescence glucose uptake (FD-glucose assay) was performed as described PMID: 32065973, using insulin, 1.7 μM and different AACs at concentration 0.1 μM.
FD-glucose uptake in mouse 3T3-L1 preadipocytes (n=8 per treatment) treated with vehicle (Veh; PBS, open bar) or hINS (1.7 μM), mouse leptin (mLep; 12.5 nM, hatched bar), or AAC2 (0.1 μM black bar) in the presence and absence of GLUT1 inhibitor (BAY-876; 10 nM in DMSO). Cells were pre-treated with or without BAY-876 for 40 min and then FD glucose and treatment reagents were added for additional 80 min of incubation. Data (%) was normalized to FD-glucose uptake in control (Veh) 3T3-L1 cells without inhibitor (100%). Student's independent t-test.

B1: IGFBP4: recombinant insulin-like growth factor binding protein 4 (protein)
chain: DEAIHCPPCSEEKLARCRPPVGCEELVREPGCGCCATCALGLGMPCGVYTPRCGSGLRCYPPRGVEKPLHTLMHGQGVCMELAEIEAIQESLQPSDKDEGDHPNNSFSPCSAHDRRCLQKHFAKIRDRSTSGGKMKVNGAPREDARPVPQGSCQSELHRALERLAASQSRTHEDLYIIPIPNCDRNGNFHPKQCHPALDGQRGKCWCVDRKTGVKLPGGLEPKGELDCHQLADSFRE
For B1, which “hyperinsulinemia (insulin levels in the blood)” value (ob/ob mice) is on record?
The value was “reduction”.

And the “glucose uptake, concentration compared with insulin” value (3T3-L1 preadipocytes)?
The value was “improves glucose uptake at 100 lower concentration than insulin”.
